In article PMC8887125, “RBBP6 activates the pre-mRNA 3′ end processing machinery in humans” (Genes & Development, 2022):
Residue numbers refer to the chain shown, from its start.

Experiments:
CPSF73 = molecular target: T1, CPSF73 (Homo sapiens, UniProt Q9UKF6); assay: in vitro SV40 pre-mRNA cleavage assay with purified proteins, dose response by denaturing gel; assay type: biochemical
T1 construct: gene CPSF3; CPSF73 within the purified recombinant seven-subunit CPSF complex (mPSF + mCF); with CPSF subunits (CPSF100, symplekin, CPSF160, WDR33, CPSF30, hFip1) with CStF, CFIIm and RBBP6 (1-335)

[1] = molecular target: T2, cleavage and polyadenylation specificity factor (CPSF), recombinant seven-subunit complex with hFip1 isoform 4 (human, UniProt Q10570 1-1443; Q9C0J8 1-576; O95639-2 1-244; Q6UN15 1-28; Q6UN15 44-393; Q9UKF6 …, F393K); assay: SEC; 2.5 µM CPSF, mCF or mCF_(symplekin ΔNTD) incubated with 10 µM SSU72 for 30 min on ice; Superose 6 Increase 3.2/300; HEPES-NaOH pH 8.0, 150 mM NaCl, 0.5 mM TCEP; peak fractions on SDS-PAGE; conditions: both partners purified
T2 construct: CPSF160, human; synthetic codon-optimised gene for the full-length protein; WDR33, human, residues 1-576 (unstructured region removed); CPSF30, human, isoform 2 (short isoform); synthetic gene for the isoform; hFip1, human; isoform 4 (UniProt Q6UN15-4) was built from residues 1-28 and 44-393 of the full-length protein; this piece is 1-28; second piece of isoform 4 (UniProt Q6UN15-4): residues …

[2] = molecular target: T3, mammalian cleavage factor (mCF), wild type: CPSF73, CPSF100 and symplekin (human, UniProt Q9UKF6 1-684; Q9P2I0 1-782; Q92797 1-1274); assay: as above; conditions: both partners purified
T3 construct: CPSF73, human; synthetic gene for the full-length protein; CPSF100, human; symplekin, human; full coding region; also called mCFWT; source: Sf9 insect cells (baculovirus, pBig1), purified (Strep-Tactin, Resource Q, Superose 6); not shown: TEV site-StrepII (SII), C-terminal, kept; copies: + +
T3 sequence (Q9UKF6 whole entry, chain 1 of 3): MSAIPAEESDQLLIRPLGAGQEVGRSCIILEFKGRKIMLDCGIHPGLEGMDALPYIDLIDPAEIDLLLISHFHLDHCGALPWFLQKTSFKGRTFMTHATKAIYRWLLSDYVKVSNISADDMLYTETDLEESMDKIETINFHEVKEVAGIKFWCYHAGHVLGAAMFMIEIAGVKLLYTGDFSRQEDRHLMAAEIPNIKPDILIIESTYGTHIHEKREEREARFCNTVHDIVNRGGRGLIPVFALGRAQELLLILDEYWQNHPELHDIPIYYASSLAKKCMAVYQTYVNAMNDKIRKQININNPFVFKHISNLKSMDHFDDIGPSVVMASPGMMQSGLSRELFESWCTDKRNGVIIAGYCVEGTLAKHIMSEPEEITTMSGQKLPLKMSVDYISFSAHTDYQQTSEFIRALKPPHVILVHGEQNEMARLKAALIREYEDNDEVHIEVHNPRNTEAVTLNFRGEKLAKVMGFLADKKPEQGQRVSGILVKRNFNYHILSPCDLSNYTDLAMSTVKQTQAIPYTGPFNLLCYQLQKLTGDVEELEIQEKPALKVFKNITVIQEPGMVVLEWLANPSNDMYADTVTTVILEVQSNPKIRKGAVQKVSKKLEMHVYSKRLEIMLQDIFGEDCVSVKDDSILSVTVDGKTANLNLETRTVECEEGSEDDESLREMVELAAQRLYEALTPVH
T3 sequence (Q9P2I0 whole entry, chain 2 of 3): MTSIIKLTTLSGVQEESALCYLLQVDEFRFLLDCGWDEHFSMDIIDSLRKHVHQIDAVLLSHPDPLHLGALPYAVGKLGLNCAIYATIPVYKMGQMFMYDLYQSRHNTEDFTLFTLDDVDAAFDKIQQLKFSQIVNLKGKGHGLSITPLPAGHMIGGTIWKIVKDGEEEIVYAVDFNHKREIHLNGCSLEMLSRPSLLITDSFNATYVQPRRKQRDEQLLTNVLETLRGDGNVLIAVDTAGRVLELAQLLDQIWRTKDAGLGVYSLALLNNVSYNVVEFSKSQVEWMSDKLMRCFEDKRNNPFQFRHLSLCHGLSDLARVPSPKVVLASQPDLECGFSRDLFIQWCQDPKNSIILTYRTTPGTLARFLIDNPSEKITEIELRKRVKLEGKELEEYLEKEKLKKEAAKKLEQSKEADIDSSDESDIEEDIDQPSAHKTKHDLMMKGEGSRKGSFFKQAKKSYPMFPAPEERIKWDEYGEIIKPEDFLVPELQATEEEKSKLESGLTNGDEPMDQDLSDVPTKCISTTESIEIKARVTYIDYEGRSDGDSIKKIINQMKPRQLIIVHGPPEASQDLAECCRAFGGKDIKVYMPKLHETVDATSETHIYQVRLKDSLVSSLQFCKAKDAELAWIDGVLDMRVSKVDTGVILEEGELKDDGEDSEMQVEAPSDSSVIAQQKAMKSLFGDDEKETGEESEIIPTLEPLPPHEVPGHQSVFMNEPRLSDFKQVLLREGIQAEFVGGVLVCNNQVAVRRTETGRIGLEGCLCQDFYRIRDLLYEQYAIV
T3 sequence (Q92797 whole entry, chain 3 of 3): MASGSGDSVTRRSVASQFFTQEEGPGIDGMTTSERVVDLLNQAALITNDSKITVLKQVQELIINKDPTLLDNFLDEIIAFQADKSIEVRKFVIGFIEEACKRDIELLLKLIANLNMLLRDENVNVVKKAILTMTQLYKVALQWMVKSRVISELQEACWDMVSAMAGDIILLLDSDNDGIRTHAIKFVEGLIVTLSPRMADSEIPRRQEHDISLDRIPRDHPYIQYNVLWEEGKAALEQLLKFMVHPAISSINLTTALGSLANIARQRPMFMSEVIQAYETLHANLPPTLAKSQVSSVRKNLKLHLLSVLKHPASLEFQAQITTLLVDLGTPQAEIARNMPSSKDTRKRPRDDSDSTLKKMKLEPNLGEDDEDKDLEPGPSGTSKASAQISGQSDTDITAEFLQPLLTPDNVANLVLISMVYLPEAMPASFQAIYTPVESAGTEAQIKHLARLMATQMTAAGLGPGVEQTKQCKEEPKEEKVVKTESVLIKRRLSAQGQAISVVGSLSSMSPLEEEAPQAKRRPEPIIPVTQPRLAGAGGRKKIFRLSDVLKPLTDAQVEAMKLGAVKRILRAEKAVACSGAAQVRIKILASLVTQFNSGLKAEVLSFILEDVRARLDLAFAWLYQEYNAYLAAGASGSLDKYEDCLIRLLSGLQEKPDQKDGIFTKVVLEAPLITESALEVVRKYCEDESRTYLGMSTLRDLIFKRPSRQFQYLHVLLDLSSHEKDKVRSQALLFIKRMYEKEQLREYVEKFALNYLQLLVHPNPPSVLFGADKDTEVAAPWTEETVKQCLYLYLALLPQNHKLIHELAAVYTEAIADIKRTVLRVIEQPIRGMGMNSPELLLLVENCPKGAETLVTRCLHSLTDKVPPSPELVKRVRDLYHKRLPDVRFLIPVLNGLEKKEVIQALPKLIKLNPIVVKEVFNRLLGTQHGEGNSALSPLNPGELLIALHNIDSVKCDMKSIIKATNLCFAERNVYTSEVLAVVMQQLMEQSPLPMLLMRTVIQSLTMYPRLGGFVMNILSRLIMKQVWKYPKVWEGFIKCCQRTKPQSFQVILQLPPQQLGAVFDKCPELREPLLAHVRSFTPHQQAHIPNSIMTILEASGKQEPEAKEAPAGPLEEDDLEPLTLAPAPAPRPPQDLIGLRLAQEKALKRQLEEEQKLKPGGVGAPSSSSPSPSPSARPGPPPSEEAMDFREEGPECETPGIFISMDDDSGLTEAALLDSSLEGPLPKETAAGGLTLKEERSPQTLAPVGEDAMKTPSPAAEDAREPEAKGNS

RBBP6 1-335 = molecular target: T4, RBBP6 1-335 (Homo sapiens, UniProt Q7Z6E9 1-335); assay: EMSA; no CPSF; 100 nM RNA; EMSA: 100 nM RNA, 15 min on ice, 10% native PAGE at 4 C (binding buffer not stated); SEC: HEPES-NaOH pH 8.0, 50 mM NaCl, 0.5 mM TCEP; pull-down: 20 mM HEPES-NaOH pH 8.0, 50 mM NaCl, 0.5 mM TCEP, 2 mM Mg(OAc)2, 4 C; conditions: protein: recombinant; tags: C-terminal TEV-StrepII; label: 5'-FAM
T4 sequence: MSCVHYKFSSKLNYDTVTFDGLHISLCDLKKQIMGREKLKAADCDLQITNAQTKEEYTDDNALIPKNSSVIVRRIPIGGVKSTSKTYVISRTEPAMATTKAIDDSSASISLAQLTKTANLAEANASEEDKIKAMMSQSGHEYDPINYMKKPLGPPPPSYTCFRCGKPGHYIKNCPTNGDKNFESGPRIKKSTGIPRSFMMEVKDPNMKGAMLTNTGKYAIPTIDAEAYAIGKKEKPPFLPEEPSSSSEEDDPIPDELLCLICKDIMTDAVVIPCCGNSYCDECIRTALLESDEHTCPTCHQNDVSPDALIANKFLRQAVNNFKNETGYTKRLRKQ

RBBP6 Y228G = molecular target: T5, RBBP6 Y228G (Homo sapiens, UniProt Q7Z6E9 1-335, Y228G); assay: EMSA; no CPSF; binding unaffected vs WT; EMSA: 100 nM RNA, 15 min on ice, 10% native PAGE at 4 C (binding buffer not stated); SEC: HEPES-NaOH pH 8.0, 50 mM NaCl, 0.5 mM TCEP; pull-down: 20 mM HEPES-NaOH pH 8.0, 50 mM NaCl, 0.5 mM TCEP, 2 mM Mg(OAc)2, 4 C; conditions: protein: recombinant; tags: C-terminal TEV-StrepII; label: 5'-FAM
T5 sequence: T4 sequence with Y228G

RBBP6 P195G = molecular target: T6, RBBP6 P195G (Homo sapiens, UniProt Q7Z6E9 1-335, P195G); assay: as above; conditions: protein: recombinant; tags: C-terminal TEV-StrepII; label: 5'-FAM
T6 sequence: T4 sequence with P195G

RBBP6 D43K R74E = molecular target: T7, RBBP6 D43K R74E (Homo sapiens, UniProt Q7Z6E9 1-335, D43K;R74E); assay: as above; conditions: protein: recombinant; tags: C-terminal TEV-StrepII; label: 5'-FAM
T7 sequence: T4 sequence with D43K, R74E

[3] = molecular target: CPSF (seven subunits);RBBP6 1-335 (Homo sapiens;Homo sapiens, UniProt Q10570;Q9C0J8;O95639;Q6UN15-4;Q9UKF6;Q9P2I0;Q92797;Q7Z6E9 …, internal_change|); assay: size exclusion chromatography; 2.5 uM CPSF, 7.5 uM RBBP6, 5 uM RNA; RBBP6 substoichiometric; EMSA: 100 nM RNA, 15 min on ice, 10% native PAGE at 4 C (binding buffer not stated); SEC: HEPES-NaOH pH 8.0, 50 mM NaCl, 0.5 mM TCEP; pull-down: 20 mM HEPES-NaOH pH 8.0, 50 mM NaCl, 0.5 mM TCEP, 2 mM Mg(OAc)2, 4 C; conditions: protein: recombinant;recombinant; tags: StrepII on WDR33 and symplekin;C-terminal TEV-StrepII; copies: 1;1;1;1;1;1;1;1; label: 5'-FAM

For `CN1CCN(CCOc2c(Cl)cc(C(=O)N[C@@H](Cc3ccccc3)C(=O)O)c(O)c2Cl)CC1` [JTE-607 acid], the IC50 (CPSF73) was roughly 350 nM.

B1: SSU72 (enzyme, human, UniProt Q9NP77 1-194, looked up)
chain: MPSSPLRVAVVCSSNQNRSMEAHNILSKRGFSVRSFGTGTHVKLPGPAPDKPNVYDFKTTYDQMYNDLLRKDKELYTQNGILHMLDRNKRIKPRPERFQNCKDLFDLILTCEERVYDQVVEDLNSREQETCQPVHVVNVDIQDNHEEATLGAFLICELCQCIQHTEDMENEIDELLQEFEEKSGRTFLHTVCFY
notes: SSU72, human; the coding region amplified from the synthetic full-length gene; also called human SSU72; phosphatase SSU72; source: E. coli BL21(DE3) Star, purified (HisTrap, 3C cleavage, Superdex 75); not shown: His6, N-terminal, cleaved
B1: binds [1]; binds [2].

AUGAUCUAGGAGACACAAUAAAGGCAAUGUUUUUAUUUGUA (ssRNA) [5'-FAM-L3 41-nt RNA]: binds (RBBP6 1-335); binds (RBBP6 Y228G); binds (RBBP6 P195G). AUGAUCUAGGAGACACAAUAAAGGCAAUGUUUUUAUUUGUA (ssRNA) [5'-FAM-L3 41-nt RNA]: binds (RBBP6 D43K R74E); binds [3].
